Target: StnCBP-HA-NLuc
Experiment: SLC assay (split-luciferase complementation in leaves)
Conditions: luminescence intensity/50 mm2 leaf area; n = 3; parent: est. 3500; read off a plot

Substance CLuc-GFP-HC-Pro^O V346I has a response of 3300.
